This data set concerns the target Amyloid beta 1-42 (UniProt P05067 672-713). The data set can be described thus: fluorescence recovery (FAM/BHQ1 dequenching); Abeta 0-160 ug/mL, 2 h; TBS: 1 mM Tris-HCl, 100 mM NaCl, 4 mM MgCl2, 5 mM KCl, pH 7.4; 37 C, 2 h; aptamer refolded from 95 C; 2 uL of 10 uM aptamer. The conditions noted are these: protein: commercial; label: 5' 6-FAM, 3' BHQ1 as printed in Methods (Results text states FAM 3', BHQ 5'); hairpin (stated design).

Sequence of Amyloid beta 1-42 (P05067 672-713): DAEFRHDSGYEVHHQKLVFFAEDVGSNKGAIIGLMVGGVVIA

As for TGGGGGGCGGACGATAGGGGCCCCCCGGTAGGATGGACG (structured_DNA) [Abeta aptamer (AAP)], the binding result was “binds”.
